Data on two molecules can be found in publication PMC2881700 (Journal of immunology (Baltimore, Md. : 1950), 2010).

Some results are limits rather than exact numbers.

Test in all cases: radioligand binding
The target in assay [1] is MD-2Flag.His6/FlagTLR4ecd (wild type) complex (human, UniProt Q9Y6Y9 19-160; O00206 24-631).
Assay [2] deals with MD-2Flag.His6/FlagTLR4ecd D299G.T399I complex (human, UniProt Q9Y6Y9 19-160; O00206 24-631, D299G | T399I).
Assay [3] has as its target FlagTLR4ecd, wild type (extracellular domain of human TLR4, residues 24-631) (human, UniProt O00206 24-631).
The target in assay [4] is full-length D299G.T399I TLR4 expressed on HEK293T cells without MD-2 (human, UniProt O00206 24-839, D299G | T399I).
full-length D299G.T399I TLR4 expressed on HEK293T cells without MD-2, sequence (O00206 24-839 D299G/T399I): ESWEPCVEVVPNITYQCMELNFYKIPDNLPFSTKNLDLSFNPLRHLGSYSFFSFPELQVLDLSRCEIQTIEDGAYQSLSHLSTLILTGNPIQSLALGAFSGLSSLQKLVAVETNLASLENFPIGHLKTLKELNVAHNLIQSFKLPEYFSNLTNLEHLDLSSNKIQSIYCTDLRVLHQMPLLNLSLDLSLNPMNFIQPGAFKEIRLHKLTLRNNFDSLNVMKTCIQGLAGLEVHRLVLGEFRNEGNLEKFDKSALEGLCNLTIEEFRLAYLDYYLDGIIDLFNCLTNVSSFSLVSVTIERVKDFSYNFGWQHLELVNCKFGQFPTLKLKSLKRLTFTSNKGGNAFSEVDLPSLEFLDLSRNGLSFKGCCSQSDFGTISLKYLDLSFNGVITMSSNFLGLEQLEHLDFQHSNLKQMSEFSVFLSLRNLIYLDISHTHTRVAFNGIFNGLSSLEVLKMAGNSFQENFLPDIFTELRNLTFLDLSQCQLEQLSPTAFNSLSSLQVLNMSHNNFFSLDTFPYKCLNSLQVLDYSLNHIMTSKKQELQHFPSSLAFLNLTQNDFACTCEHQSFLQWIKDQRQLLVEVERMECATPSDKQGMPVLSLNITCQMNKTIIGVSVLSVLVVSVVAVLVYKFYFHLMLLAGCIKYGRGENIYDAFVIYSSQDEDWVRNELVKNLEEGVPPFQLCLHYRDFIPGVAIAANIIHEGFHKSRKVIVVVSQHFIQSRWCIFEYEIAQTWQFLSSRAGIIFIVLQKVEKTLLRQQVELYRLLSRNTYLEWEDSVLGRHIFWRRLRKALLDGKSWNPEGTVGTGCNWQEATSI

MD-2Flag.His6/FlagTLR4ecd D299G.T399I complex, sequence (O00206 24-631 D299G/T399I, one chain of several): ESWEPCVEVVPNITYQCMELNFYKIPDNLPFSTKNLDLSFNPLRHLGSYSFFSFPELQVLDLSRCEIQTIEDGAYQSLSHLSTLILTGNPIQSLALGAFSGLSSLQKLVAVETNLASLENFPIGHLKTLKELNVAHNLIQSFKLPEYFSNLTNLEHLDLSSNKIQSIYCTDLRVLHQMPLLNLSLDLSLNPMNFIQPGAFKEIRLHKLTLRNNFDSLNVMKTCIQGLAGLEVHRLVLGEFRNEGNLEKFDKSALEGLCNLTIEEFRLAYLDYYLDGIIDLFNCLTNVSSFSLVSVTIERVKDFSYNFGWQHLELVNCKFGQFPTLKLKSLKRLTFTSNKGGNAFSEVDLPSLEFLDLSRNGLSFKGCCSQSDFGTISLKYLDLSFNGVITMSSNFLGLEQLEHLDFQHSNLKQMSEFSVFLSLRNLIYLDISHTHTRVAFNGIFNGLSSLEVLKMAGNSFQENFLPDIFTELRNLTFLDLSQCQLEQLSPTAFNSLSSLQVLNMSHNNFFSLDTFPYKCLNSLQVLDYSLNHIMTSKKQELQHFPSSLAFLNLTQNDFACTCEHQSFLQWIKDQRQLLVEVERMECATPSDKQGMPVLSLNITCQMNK
MD-2Flag.His6/FlagTLR4ecd (wild type) complex, sequence (O00206 24-631, one chain of several): as the sequence (O00206 24-631 D299G/T399I, one chain of several) above, with G276D, I376T counted along it
FlagTLR4ecd, wild type (extracellular domain of human TLR4, residues 24-631), sequence (O00206 24-631): as the sequence (O00206 24-631 D299G/T399I, one chain of several) above, with G276D, I376T counted along it

B1: monomeric [3H]LOS·sCD14 complex (endotoxin·CD14) (natural protein, UniProt P08571 20-345, looked up)
chain: TTPEPCELDDEDFRCVCNFSEPQPDWSEAFQCVSAVEVEIHAGGLNLEPFLKRVDADADPRQYADTVKALRVRRLTVGAAQVPAQLLVGALRVLAYSRLKELTLEDLKITGTMPPLPLEATGLALSSLRLRNVSWATGRSWLAELQQWLKPGLKVLSIAQAHSPAFSCEQVRAFPALTSLDLSDNPGLGERGLMAALCPHKFPAIQNLALRNTGMETPTGVCAALAAAGVQPHSLDLSHNSLRATVNPSAPRCMWSSALNSLNLSFAGLEQVPKGLPAKLRVLDLSCNRLNRAPQPDELPEVDNLTLDGNPFLVPGTALPHEGSMN
Broadly, the Kd is the equilibrium constant for the complex coming apart. Turning to B1, the results for the Kd in assay [1] and in assay [2] were 0.196 nM and 0.186 nM, respectively.

B2: monomeric [3H]LOS·MD-2His6 complex (endotoxin·MD-2) (natural protein)
chain: QKQYWVCNSSDASISYTYCDKMQYPISINVNPCIELKRSKGLLHIFYIPRRDLKQLYFNLYITVNTMNLPKRKEVICRGSDDDYSFCRALKGETVNTTISFSFKGIKFSKGKYKCVVEAISGSPEEMLFCLEFVILHQPNSN
As for B2, the Kd in assay [3] came out at 0.221 ± 0.043 nM. In addition, the “fold reduction of cell binding against wt TLR4” value in assay [4] is no less than 10 fold.
